# Measured values: US20100303808A1 (published 2010)
# Positions count from the first letter of the chain named.
# T1: human CD20 (human, UniProt P11836 1-297)
# T1 sequence (looked up): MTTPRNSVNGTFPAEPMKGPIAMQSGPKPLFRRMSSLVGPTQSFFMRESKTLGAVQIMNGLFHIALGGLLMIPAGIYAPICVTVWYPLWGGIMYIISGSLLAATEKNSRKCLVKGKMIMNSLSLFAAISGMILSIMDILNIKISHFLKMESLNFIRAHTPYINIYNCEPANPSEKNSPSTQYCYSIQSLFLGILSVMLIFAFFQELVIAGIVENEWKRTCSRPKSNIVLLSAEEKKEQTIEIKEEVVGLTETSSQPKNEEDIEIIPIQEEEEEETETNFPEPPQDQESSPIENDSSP
# B1: chimeric antibody c1F5 (c1F5VH x c1F5VK) (antibody, human IgG1, kappa, V domains shown)
# VH: QVQLRQPGAELVKPGASVKMSCKASGYTFTSYNMHWVKQTPGQGLEWIGAIYPGNGDTSYNQKFKGKATLTADKSSSTAYMQLSSLTSEDSAVYYCARSHYGSNYVDYFDYWGQGTLVTVST
# VL: QIVLSQSPAILSASPGEKVTMTCRASSSLSFMHWYQQKPGSSPKPWIYATSNLASGVPARFSGSGSGTSYSLTISRVEAEDAATYFCHQWSSNPLTFGAGTKVEIKR
# notes: Mouse 1F5 variable regions on human gamma1 / kappa constant regions; also called chimeric 1F5
# B2: chimeric c1F5VH x 1F5RKB12 (antibody, human IgG1, kappa, V domains shown)
# VH: B1 VH
# VL: EIVLTQSPGTLSLSPGERATLSCRASSSLSFMHWYQQKPGQAPRPWIYATSNLASGIPARFSGSGSGTDYTLTISRLEPEDFAVYFCHQWSSNPLTFGQGTKVELKR
# notes: IgG1 kappa from HEK293T conditioned medium
# B3: 1F5RHA x 1F5RKB11 (antibody, human IgG1, kappa, V domains shown)
# VH: QVQLVQSGAEVKKPGASVKVSCKASGYTFTSYNMHWVRQAPGQRLEWIGAIYPGNGDTSYNQKFKGRVTVTRDTSANTAYMELSSLKSEDTAVYYCARSHYGSNYVDYFDYWGQGTLVTVSS
# VL: EIVLTQSPSSLSASVGDRVTITCRASSSLSFMHWYQQKPGKAPKPWIYATSNLASGVPSRFSGSGSGTDYTLTISSLQPEDFATYFCHQWSSNPLTFGGGTKVEIKR
# notes: also called RHA x RKB11; Variant D
# B4: 1F5RHA x 1F5RKB12 (antibody, human IgG1, kappa, V domains shown)
# VH: B3 VH
# VL: B2 VL
# notes: also called RHA x RKB12; Variant F
# B5: 1F5RHA x chimeric c1F5VK (antibody, human IgG1, kappa, V domains shown)
# VH: B3 VH
# VL: B1 VL
# notes: IgG1 kappa from HEK293T conditioned medium; also called chimeric VK x 1F5RHA
# B6: 1F5RHA x 1F5RKG11 (antibody, human IgG1, kappa, V domains shown)
# VH: B3 VH
# VL: B3 VL with W46L, Y70F, F86Y
# notes: also called RHA x RKG11; 1F5RKG11 x 1F5RHA
# B7: chimeric c1F5VH x 1F5RKB11 (antibody, human IgG1, kappa, V domains shown)
# VH: B1 VH
# VL: B3 VL
# notes: IgG1 kappa from HEK293T conditioned medium; also called chimeric VH x 1F5RKB11
# B8: 1F5RHA x 1F5RKF12 (antibody, human IgG1, kappa, V domains shown)
# VH: B3 VH
# VL: B2 VL with W46L, Y70F
# notes: also called RHA x RKF12; 1F5RKF12 x 1F5RHA
# B9: 1F5RHB x chimeric c1F5VK (antibody, human IgG1, kappa, V domains shown)
# VH: B3 VH with V68A, V70L, R72A, T74K
# VL: B1 VL
# notes: 1F5RHB is 1F5RHA with four back mutations
# B10: rituximab (antibody, V domains shown)
# VH: QVQLQQPGAELVKPGASVKMSCKASGYTFTSYNMHWVKQTPGRGLEWIGAIYPGNGDTSYNQKFKGKATLTADKSSSTAYMQLSSLTSEDSAVYYCARSTYYGGDWYFNVWGAGTTVTVSA
# VL: QIVLSQSPAILSASPGEKVTMTCRASSSVSYIHWFQQKPGSSPKPWIYATSNLASGVPVRFSGSGSGTSYSLTISRVEAEDAATYYCQQWTSNPPTFGGGTKLEIK
# Columns and labels:
# [1] = biological target: T1, human CD20; experiment: cell-based or functional assay
# [2] = biological target: T1, human CD20; experiment: dissociation of DyLight 488-labelled antibody from Raji cells at 37 C in excess unlabelled antibody, FACS MFI; Study 1; parameters: unit not given here
# Procedure: (§1) All antibodies were conjugated to a fluorescein-like fluorophore, DyLight 488, according to vendor instructions (Pierce Cat. No. 53025). Following conjugation, labeled antibody was separated from free dye using chromatography columns provided in the labeling kit. […] Purified labeled antibodies were stored at 4° C. in PBS protected from light.
# (§2) To measure antibody dissociation from cells, 10⁶ Raji cells were suspended in PBS containing 1% bovine serum albumin (PBS/BSA). Labeled antibody was added to a final concentration of 5 ug/ml in a volume of 1.0 ml. Following a 30 minute incubation at 37° C., unlabeled (“cold”) antibody was added to a final concentration of 1000 ug/ml. Labeled cells mixed with cold antibody were returned to 37° C. for 4 hours. At 20-minute intervals, 100 ul aliquots of cells were withdrawn from each sample, 400 uL cold PBS/BSA containing propidium iodide was added and mean fluorescence intensity (MFI) of the cell population excluding dead cells (PI⁺) determined by FACS.
# [3] = biological target: T1, human CD20; experiment: dissociation of DyLight 488-labelled antibody from Raji cells at 37 C in excess unlabelled antibody, FACS MFI; Study 2; parameters: unit not given here
# Procedure: as §1, §2
# [4] = biological target: T1, human CD20; experiment: dissociation of DyLight 488-labelled antibody from Raji cells at 37 C in excess unlabelled antibody, FACS MFI; average of Studies 1 and 2; parameters: unit not given here
# Procedure: as §1, §2
# [5] = biological target: T1, human CD20; experiment: ELISA on fixed Raji cells (CD20+), anti-human kappa detection
# Procedure: Raji cells (80 μl; 1-2×10⁶ cells/ml in 24 ml with fresh growth medium diluted with 0.11 vol of 10×PBS (MPBS) and 8 ml 8% paraformaldehyde (in PBS)) were added to 96-well poly-D-lysine-coated plate and centrifuged at 2500 rpm (Beckman 6L) at 25° C. for 60 minutes. The pellets were washed 4 times with 400 μl PBS, Tween 20 (0.02% v/v). 50 μl of MPBS was added to each well after the final wash, and incubated for 1 hour at room temperature, and the blocking buffer was then discarded. Serial dilutions of the 1F5 antibodies were prepared in MPBS in a separate 96-well plate, transferred to the Raji-cell coated plate and incubated at room temperature for 1 hour. The antibody solution was then discarded and the plates were washed 6 times with 400 μl PBS buffer. Goat anti-human kappa (Sigma A7164) was prepared by diluting the stock antibody solution 1:2000 in MPBS, added to the washed wells, and incubated again at room temperature for 1 hour. The plates were again washed 6 times in 400 μl PBS buffer. 100 μl of K-blue TMB solution was added to each well. The reactions were stopped by added 50 μl red stop after 30 minutes, and the absorbance was read at 650 nm.
# [6] = biological target: T1, human CD20; experiment: cell-based or functional assay; remark: listed apart in the source
binder,measurement,setting,value
B1,"LogEC50, complement dependent cytotoxicity (CDC) on Raji cells",[1],-0.781
same,Half-life (dissociation from Raji cells),[2],59
same,Half-life (dissociation from Raji cells),[3],57
same,"Half-life (dissociation from Raji cells), average",[4],58
B2,binding result,[5],binds
B3,"LogEC50, complement dependent cytotoxicity (CDC) on Raji cells",[1],-1.06
same,Half-life (dissociation from Raji cells),[2],44
same,Half-life (dissociation from Raji cells),[3],59
same,"Half-life (dissociation from Raji cells), average",[4],52
B4,"LogEC50, complement dependent cytotoxicity (CDC) on Raji cells",[1],-1.13
same,Half-life (dissociation from Raji cells),[2],72
same,Half-life (dissociation from Raji cells),[3],64
same,"Half-life (dissociation from Raji cells), average",[4],68
B5,binding result,[5],binds
B6,"complement dependent cytotoxicity (CDC) on Raji cells, relative to rituximab",[6],~10 times less than rituximab
same,"LogEC50, complement dependent cytotoxicity (CDC) on Raji cells",[1],-0.773
same,Half-life (dissociation from Raji cells),[2],67
same,Half-life (dissociation from Raji cells),[3],63
same,"Half-life (dissociation from Raji cells), average",[4],65
B7,binding result,[5],binds
B8,"LogEC50, complement dependent cytotoxicity (CDC) on Raji cells",[1],-1.15
same,Half-life (dissociation from Raji cells),[2],67
same,Half-life (dissociation from Raji cells),[3],65
same,"Half-life (dissociation from Raji cells), average",[4],66
B9,binding result,[5],binds
B10,"LogEC50, complement dependent cytotoxicity (CDC) on Raji cells",[1],-1.73
same,Half-life (dissociation from Raji cells),[2],24
same,Half-life (dissociation from Raji cells),[3],24
same,"Half-life (dissociation from Raji cells), average",[4],24
